Like-named read-outs stand apart in the source and are kept apart here.
Experiments:
IL-7Rα = target: T1, IL-7Rα (Homo sapiens, UniProt P16871); test: Biolayer interferometry binding to IL-7Rα
T1 construct: IL-7Rα (residues 37-231, Uniprot ID P16871); IgK signal peptide (N); made in house; host or cells: mammalian cells
T1 sequence (P16871 37-231): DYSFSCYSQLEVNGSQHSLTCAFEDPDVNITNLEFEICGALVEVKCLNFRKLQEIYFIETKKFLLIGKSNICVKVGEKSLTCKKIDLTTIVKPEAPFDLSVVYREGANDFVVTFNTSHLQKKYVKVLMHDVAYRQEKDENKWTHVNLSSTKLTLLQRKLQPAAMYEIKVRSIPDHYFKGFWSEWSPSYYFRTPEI

[1] = Circular dichroism wavelength scans and temperature melts (Tm); format: physicochemical
[2] = target: Influenza A H3 hemagglutinin (A/Hong Kong/1/1968) ectodomain (Influenza A virus (A/Hong Kong/1/1968), UniProt Q91MA7 17-530); test: BLI (Octet); biotinylated target on streptavidin sensors, miniprotein as analyte
[3] = target: T2, Influenza A H1 hemagglutinin (A/Puerto Rico/8/1934), ectodomain (Influenza A virus (A/Puerto Rico/8/1934), UniProt P03452 18-528); test: method not named in the sentence (FIG. 7b)
T2 construct: extracellular domain

[4] = target: T3, FGFR2 ectodomain (residues 147-366) with C-terminal TEV/His/AviTag (human, UniProt P21802 147-366); test: biolayer interferometry
T3 construct: range 147-366; also called Fibroblast growth factor receptor 2
T3 sequence (P21802 other isoform, or with tags, fused parts or gaps limits assumed, form in doubt): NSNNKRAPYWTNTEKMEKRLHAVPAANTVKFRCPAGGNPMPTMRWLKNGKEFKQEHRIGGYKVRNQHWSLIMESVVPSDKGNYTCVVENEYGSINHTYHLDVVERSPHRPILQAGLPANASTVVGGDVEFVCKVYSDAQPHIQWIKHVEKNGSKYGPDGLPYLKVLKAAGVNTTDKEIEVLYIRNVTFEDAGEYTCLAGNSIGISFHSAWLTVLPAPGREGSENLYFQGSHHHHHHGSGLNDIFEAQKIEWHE

[5] = target: T4, FGFR2 ectodomain (residues 147-366) (human, UniProt P21802 147-366); test: BLI (Octet); biotinylated target on streptavidin sensors, miniprotein as analyte
T4 construct: range 147-366; also called FGER2; Fibroblast growth factor receptor 2
T4 sequence (P21802 other isoform, or with tags, fused parts or gaps limits assumed, form in doubt): as above

IGF1R = target: T5, IGF1R (Homo sapiens, UniProt P08069); test: Biolayer interferometry binding to IGF1R (MBP-tagged miniprotein as analyte)
T5 construct: IGF1R (residues 31-930, Uniprot ID P08069); IgK signal peptide (N); made in house; host or cells: mammalian cells

[6] = target: T6, IGF1R ectodomain (residues 31-930) (human, UniProt P08069 31-930); test: BLI (Octet); biotinylated target on streptavidin sensors, MBP-tagged miniprotein as analyte
T6 construct: range 31-930; also called IGFIR; Insulin-like growth factor 1 receptor

[7] = target: T7, TGF-β (Acro Biosystems Cat #TG1-H8217) (human, UniProt P01137 279-390); test: BLI (Octet); biotinylated target on streptavidin sensors, miniprotein as analyte
T7 construct: also called TGFb; Transforming growth factor beta
T7 sequence (P01137 279-390 limits assumed): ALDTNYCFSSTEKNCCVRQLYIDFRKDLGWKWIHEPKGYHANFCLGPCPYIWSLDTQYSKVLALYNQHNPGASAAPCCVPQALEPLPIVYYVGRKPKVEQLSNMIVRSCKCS

signaling through FGFR2 = test: Inhibition of native agonist signaling through FGFR2 on cells in culture; format: cell-based; conditions: data not shown
FGFR2 = target: T8, FGFR2 (Homo sapiens, UniProt P21802); test: Biolayer interferometry binding to FGFR2
T8 construct: FGFR2 (residues 147-366, Uniprot ID P21802); IgK signal peptide (N); made in house; host or cells: mammalian cells
T8 sequence (P21802 147-366): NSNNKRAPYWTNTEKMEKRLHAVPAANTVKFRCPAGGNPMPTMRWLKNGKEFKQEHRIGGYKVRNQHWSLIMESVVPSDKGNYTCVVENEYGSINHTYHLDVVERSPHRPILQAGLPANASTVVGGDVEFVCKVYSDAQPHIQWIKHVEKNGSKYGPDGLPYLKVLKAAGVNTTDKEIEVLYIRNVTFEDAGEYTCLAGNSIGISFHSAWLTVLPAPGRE

[8] = target: T9, PDGFR ectodomain (residues 33-314) (human, UniProt P09619 33-314); test: BLI (Octet); biotinylated target on streptavidin sensors, miniprotein as analyte
T9 construct: range 33-314; also called Platelet-derived growth factor receptor
T9 sequence (P09619 other isoform, or with tags, fused parts or gaps limits assumed): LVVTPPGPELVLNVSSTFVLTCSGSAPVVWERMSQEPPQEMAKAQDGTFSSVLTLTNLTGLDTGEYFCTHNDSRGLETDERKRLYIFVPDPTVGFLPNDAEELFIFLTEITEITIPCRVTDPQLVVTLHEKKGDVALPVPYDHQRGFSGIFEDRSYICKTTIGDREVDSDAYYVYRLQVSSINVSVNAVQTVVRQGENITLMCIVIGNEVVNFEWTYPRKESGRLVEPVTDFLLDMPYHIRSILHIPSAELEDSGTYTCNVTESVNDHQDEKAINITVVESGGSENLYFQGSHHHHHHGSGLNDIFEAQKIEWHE

[9] = target: Human TrkA ECD (residues 36-382) with C-terminal BAP tag and 6xHis tag (human, UniProt P04629 36-382); test: biolayer interferometry
Human TrkA ECD (residues 36-382) with C-terminal BAP tag and 6xHis tag, sequence (P04629 other isoform, or with tags, fused parts or gaps limits assumed): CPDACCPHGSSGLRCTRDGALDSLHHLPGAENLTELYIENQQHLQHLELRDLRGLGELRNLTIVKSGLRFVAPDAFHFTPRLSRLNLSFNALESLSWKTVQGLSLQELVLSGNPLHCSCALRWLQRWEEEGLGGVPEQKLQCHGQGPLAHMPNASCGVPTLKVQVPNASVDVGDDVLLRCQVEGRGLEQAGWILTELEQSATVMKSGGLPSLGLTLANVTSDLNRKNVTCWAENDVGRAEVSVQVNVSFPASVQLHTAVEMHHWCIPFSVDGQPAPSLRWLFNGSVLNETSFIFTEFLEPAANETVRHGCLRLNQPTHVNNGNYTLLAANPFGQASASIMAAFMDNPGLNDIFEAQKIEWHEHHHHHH

[10] = target: human TrkA ECD (residues 36-382) (human, UniProt P04629 36-382); test: BLI (Octet); biotinylated target on streptavidin sensors, miniprotein as analyte
human TrkA ECD (residues 36-382), sequence (P04629 other isoform, or with tags, fused parts or gaps limits assumed): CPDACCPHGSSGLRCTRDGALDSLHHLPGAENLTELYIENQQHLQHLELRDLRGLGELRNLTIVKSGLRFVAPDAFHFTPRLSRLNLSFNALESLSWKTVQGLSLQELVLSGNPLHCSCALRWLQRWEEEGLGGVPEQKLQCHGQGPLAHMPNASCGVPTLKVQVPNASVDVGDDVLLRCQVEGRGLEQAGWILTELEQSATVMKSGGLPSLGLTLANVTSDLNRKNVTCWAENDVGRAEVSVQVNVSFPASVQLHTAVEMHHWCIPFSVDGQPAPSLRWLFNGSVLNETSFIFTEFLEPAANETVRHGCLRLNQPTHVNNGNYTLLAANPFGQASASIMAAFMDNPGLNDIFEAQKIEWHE

[11] = target: VirB8-like protein from Rickettsia typhi (Rickettsia typhi); test: as above
VirB8 = format: binding, Rickettsia typhi; conditions: read-out: Octet kD
[12] = target: T10, EGFR ectodomain (residues 25-525) (human, UniProt P00533 25-525); test: BLI (Octet); biotinylated target on streptavidin sensors, miniprotein as analyte
T10 construct: also called EGER; Epidermal growth factor receptor

[13] = target: T11, Biotinylated CD3 protein (Abcam Cat #ab205994) (human, UniProt P04234 22-105); test: as above
T11 construct: also called CD3δ; CD3 delta chain
T11 sequence (P04234 22-105 limits assumed): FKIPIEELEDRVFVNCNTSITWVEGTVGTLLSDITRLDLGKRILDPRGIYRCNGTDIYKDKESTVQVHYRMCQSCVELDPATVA

InsulinR = target: T12, InsulinR (Homo sapiens, UniProt P06213); test: Biolayer interferometry binding to InsulinR (miniprotein on AR2G biosensor, receptor as analyte)
T12 construct: InsulinR (residues ID 28-953, Uniprot ID P06213); IgK signal peptide (N); TEV cleavage site (C); 6-His-tag (C); AviTag (C); made in house; host or cells: mammalian cells

[14] = target: T13, InsulinR ectodomain (residues 28-953) (human, UniProt P06213 28-953); test: BLI (Octet); miniprotein immobilized on AR2G sensors, insulin receptor as analyte
T13 construct: range 28-953; also called IR; Insulin receptor

[15] = target: IL-7Rα ectodomain (residues 37-231) (human, UniProt P16871 37-231); test: BLI (Octet); biotinylated target on streptavidin sensors, miniprotein as analyte
IL-7Rα ectodomain (residues 37-231), sequence (P16871 other isoform, or with tags, fused parts or gaps limits assumed): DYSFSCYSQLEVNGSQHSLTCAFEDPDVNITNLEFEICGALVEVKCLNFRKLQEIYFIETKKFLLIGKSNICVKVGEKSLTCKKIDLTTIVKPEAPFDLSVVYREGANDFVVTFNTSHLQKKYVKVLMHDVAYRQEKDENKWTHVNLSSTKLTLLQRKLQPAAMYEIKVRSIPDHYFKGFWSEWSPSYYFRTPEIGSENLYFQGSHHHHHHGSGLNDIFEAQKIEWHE

[16] = target: T14, Tie2 ectodomain (residues 23-445) (human, UniProt Q02763 23-445); test: BLI (Octet); biotinylated target on streptavidin sensors, MBP-tagged miniprotein as analyte
T14 construct: range 23-445; also called Angiopoietin-1 receptor
T14 sequence (Q02763 other isoform, or with tags, fused parts or gaps limits assumed): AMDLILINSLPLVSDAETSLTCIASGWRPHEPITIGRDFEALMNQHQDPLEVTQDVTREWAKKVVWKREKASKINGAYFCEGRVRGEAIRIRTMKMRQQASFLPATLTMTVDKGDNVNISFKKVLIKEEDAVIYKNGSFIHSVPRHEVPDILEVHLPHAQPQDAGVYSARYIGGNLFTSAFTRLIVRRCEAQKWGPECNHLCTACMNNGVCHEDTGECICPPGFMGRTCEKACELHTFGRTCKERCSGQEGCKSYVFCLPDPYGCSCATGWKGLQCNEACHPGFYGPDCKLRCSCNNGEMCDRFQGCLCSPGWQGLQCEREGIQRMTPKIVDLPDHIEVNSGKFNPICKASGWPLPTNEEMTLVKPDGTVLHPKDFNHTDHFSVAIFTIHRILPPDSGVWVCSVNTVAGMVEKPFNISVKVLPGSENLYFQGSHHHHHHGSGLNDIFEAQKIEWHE

Tie2 = target: T15, Tie2 (Homo sapiens, UniProt Q02763); test: Biolayer interferometry binding to Tie2 (MBP-tagged miniprotein as analyte)
T15 construct: Tie2 (residues 23-445, Uniprot ID Q02763); IgK signal peptide (N); made in house; host or cells: mammalian cells
T15 sequence (Q02763 23-445): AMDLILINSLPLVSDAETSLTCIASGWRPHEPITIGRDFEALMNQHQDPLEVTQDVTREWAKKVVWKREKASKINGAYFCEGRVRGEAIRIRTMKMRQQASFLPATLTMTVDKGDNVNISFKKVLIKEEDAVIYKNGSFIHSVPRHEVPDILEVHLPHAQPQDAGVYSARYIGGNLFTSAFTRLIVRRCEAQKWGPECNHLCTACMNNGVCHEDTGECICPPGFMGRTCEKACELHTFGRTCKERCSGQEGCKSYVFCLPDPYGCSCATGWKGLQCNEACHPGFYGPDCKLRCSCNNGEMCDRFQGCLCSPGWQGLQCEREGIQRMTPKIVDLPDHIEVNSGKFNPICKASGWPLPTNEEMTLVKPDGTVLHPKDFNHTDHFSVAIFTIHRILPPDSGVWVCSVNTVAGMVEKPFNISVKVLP

## IL-7Rα binder: de novo miniprotein binder for IL-7Rα targeting the IL-7 binding site; probably IL7Ra_mb2, SEQ ID NO: 760 (SVKKKVRKVEKKARKAGDELAVLLARRVLEALEKGLVSEEDADESADRIEEALKK)
IL-7Rα; targeting the IL-7 binding site
  affinity for IL-7Rα (in words): picomolar affinity

## IL-7Rα_mb (SVIEKLRKLEKQARKQGDEVLVMLARMVLEYLEKGWVSEEDADESADRIEEVLKK)
[1]; optimized sequence
  TM: >95 °C
IL-7Rα; target IL-7Rα, optimized sequence, read-out: Octet kD
  Kd: 0.312 nM

B1: H3_mb (designed binder)
chain: MSHHHHHHHHSENLYFQSGGGSQHEKFLEWMLRKIEEAIKRGNKISAEFLINLAKNFIHVLGDDEIRRRLERLERQLH
[1]
  TM: >95 °C
[2]
  Kd: 320 nM

B2: H3_mb (optimized H3 hemagglutinin binder, purified from E. coli) (designed binder)
chain: MSHHHHHHHHSENLYFQSGGGSQHEKFLEWMLRKIEEAIKRGNKISAEFLINLAKNFIHVLGDDEIRRRLERLERQLH
[3]
  binding result: binds

B3: FGFR2_mb (optimized FGFR2 binder, purified from E. coli) (designed binder)
chain: MSHHHHHHHHSENLYFQSGGGDRRKEMDKVYRTAFKRITSTPDKEKRKEVVKEATEQLRRIAKDEEEKKKAAYMILFLKTLG
notes: also called FGFR2_mb3
[4]
  Kd: ≤ 1 nM

B4: FGFR2_mb (designed binder)
chain: MSHHHHHHHHSENLYFQSGGGDRRKEMDKVYRTAFKRITSTPDKEKRKEVVKEATEQLRRIAKDEEEKKKAAYMILFLKTLG
[1]; optimized sequence
  TM: 71.1 ºC ° C.
[5]
  Kd: 0.543 nM

B5: MBP-tagged IGF1R_mb (designed binder)
chain: STRNAEFIMLLLELCVKSKNDPQVQEYVKKVKKQVERLVGNGDEKKAEEVARKALEYCADG
notes: not shown: N-terminal 6 His-tag and MBP tag
IGF1R
  binding affinity for IGF1R (in words): weak and low
[1]; optimized sequence
  TM: >95 °C
[6]
  Kd: 860 nM

B6: TGF-β_mb (designed binder)
chain: MSHHHHHHHHSENLYFQSGGGHCTIEVVGVDPEKVEAIAAAYGAEVCEKDGKFEIHLDDPHSAESAAVAISVLTNRPVRLQC
[1]; optimized sequence
  TM: >95 °C
[7]
  Kd: 270 nM

B7: FGFR2 binder: optimized de novo miniprotein binder to FGFR2; probably SEQ ID NO: 144 (protein)
chain: DRRKEMDKVYRTAFKRITSTPDKEKRKEVVKEATEQLRRIAKDEEEKKKAAYMILFLKTLG
Signaling through FGFR2
  inhibition of signaling through FGFR2 by the native agonist: strong inhibition of signaling
FGFR2
  affinity for FGFR2 (in words): picomolar

B8: PDGFR_mb (designed binder)
chain: MSHHHHHHHHSENLYFQSGGGDDERLATLAFRALIKRAGVKNLDVKVTNGKVRVTITGRDQASFKALQLVFALARRLGLQVQIDTR
[1]; optimized sequence
  TM: >95 °C
[8]
  Kd: 53 nM

B9: TrkA_mb (optimized TrkA binder, purified from E. coli) (designed binder)
chain: MSHHHHHHHHSENLYFQSGGGRDEIKERIFKAVVRAIVTGNPEQLKEAKKLLEKLKKLGRLDQDAKKFEKAIRQVEKRLRS
[9]
  Kd: ≤ 1 nM

B10: TrkA_mb (designed binder)
chain: MSHHHHHHHHSENLYFQSGGGRDEIKERIFKAVVRAIVTGNPEQLKEAKKLLEKLKKLGRLDQDAKKFEKAIRQVEKRLRS
[10]
  Kd: 1.4 nM

B11: VirB8_mb (designed binder)
chain: MSHHHHHHHHSENLYFQSGGGNAEEITEKATLVGIEAWLLAKDEEQKKKVRTLNRQVKKLLQQNDLDQAKRVLDQLKSVLEDLKS
[1]
  TM: 66.2 °C
[11]
  Kd: 0.5 nM
VirB8
  Kd: 0.5 nM

B12: EGFRn_mb (designed binder)
chain: MSHHHHHHHHSENLYFQSGGGDHWEEVFRWALEHLQEATQQNDPQKAKKILEEAHKWLRRELSEEEARAVVRWLKQLVDRELS
[1]; optimized sequence
  TM: >95 °C
[12]
  Kd: 1.7 nM

B13: EGFRc_mb (designed binder)
chain: MSHHHHHHHHSENLYFQSGGGSLDEAKKLLQEAEKLARKLNDRMELAYVEFLKHILETAKKQNDKRTIESVRDMARDALEELQS
[1]; optimized sequence
  TM: 71.2 °C
[12]
  Kd: 6.8 nM

B14: CD3δ_mb (designed binder)
chain: MSHHHHHHHHSENLYFQSGGGNHIACEIHNPEAAKEIAKVANVRRVYFIKQPGNRYFVLLKNADPEGVKKVRSKYNVRCVIRE
[1]; optimized sequence
  TM: >95 °C
[13]
  Kd: 612 nM

B15: InsulinR binder: optimized de novo miniprotein binder to insulin receptor; probably InsulinR_mb5, SEQ ID NO: 788 (protein)
chain: DEELLELVYEAVEKNDPRLLFEAWMILASLLDKTGDPKIEELLRLLQLVDRGDPDARRRIKELFK
InsulinR
  binding affinity for InsulinR (in words): weak

B16: InsulinR_mb (designed binder)
chain: MSHHHHHHHHSENLYFQSGGGDEELMELVYEAVEKNDPELLFEAWMELASLLDETGDPKIEEALGLLQQVDGGNPDAGRRIKELFK
[1]; optimized sequence
  TM: 65 °C ° C.
[14]
  Kd: 270 nM

B17: IL-7Rα_mb (designed binder)
chain: MSHHHHHHHHSENLYFQSGGGSVIEKLRKLEKQARKQGDEVLVMLARMVLEYLEKGWVSEEDADESADRIEEVLKK
[15]
  Kd: 0.312 nM

B18: MBP-tagged Tie2_mb (designed binder)
chain: SIDEELERLLEEAGVDPELIDDLYAVIYQLYIRGLSDKDVLRFLLENLERDGTPLRRVVEELLKR
notes: as for B5
[16]
  Kd: 584 nM

B19: Tie2 binder: optimized de novo miniprotein binder to Tie2; probably Tie2_mb2, SEQ ID NO: 1451 (protein)
chain: SIDEELERLLEEAGVDPELIDDLYAVIYQLYIRGLSDKDVLRFLLENLERDGTPLRRVVEELLKR
Tie2
  binding affinity for Tie2 (in words): weak and low

B20: Tie2_mb (protein)
chain: SIDEELERLLEEAGVDPELIDDLYAVIYQLYIRGLSDKDVLRFLLENLERDGTPLRRVVEELLKR
modifications: left off: large carriers
[1]; optimized sequence
  TM: >95 °C
